Source: IntAct's records for PubMed 19726565

B1: Inositol phosphorylceramide synthase regulatory subunit KEI1 (Saccharomyces cerevisiae), Q06346 (parent)
chain: MRSSLLTLPKSFLGFMPLYLAVEIVLGISILNKCSGAYGILALFTGHPLDFMQWIAYLWSVFTLIVFSQGLYLIHKPNLLVFSQICVLYTIDTISTCFFTLWFTTQWFTLEDTANIDGNNALQSNPISTGKLTERGIDISKQSATESYEYTMTILITLVSLIFRFYFNFILASFVQELLHHPKYLVDRDDVEQNLKNKPIWKRLWAKSQKGCYKLCKNLLE
partner: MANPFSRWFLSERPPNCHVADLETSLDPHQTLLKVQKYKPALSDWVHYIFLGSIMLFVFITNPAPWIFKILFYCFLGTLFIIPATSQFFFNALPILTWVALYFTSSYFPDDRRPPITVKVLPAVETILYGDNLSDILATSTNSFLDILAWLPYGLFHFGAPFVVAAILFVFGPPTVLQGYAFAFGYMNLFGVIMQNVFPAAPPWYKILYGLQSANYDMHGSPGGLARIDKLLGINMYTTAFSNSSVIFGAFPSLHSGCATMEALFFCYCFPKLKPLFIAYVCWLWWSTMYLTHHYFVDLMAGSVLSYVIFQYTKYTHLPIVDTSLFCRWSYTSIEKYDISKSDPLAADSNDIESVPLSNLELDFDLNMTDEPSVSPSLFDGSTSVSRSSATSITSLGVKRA

Variants of: B1
Details: with aur1_yeast AUR1, P36107

Row | Variant | effect of a mutation on the interaction
1 | MRSSLLTLPKSFLGFMPLYLAVEIVLGISILNKCSGAYGILALFTGHPLDFMQWIAYLWSVFTLIVFSQGLYLIHKPNLLVFSQICVLYTIDTISTCFFTLWITTQWFTLEDTANIDGNNALQSNPISTGKLTERGIDISKQSATESYEYTMTILITLVSLIFRFYFNFILASFVQELLHHPKYLVDRDDVEQNLKNKPIWKRLWAKSQKGCYKLCKNLLE [F103I] | disrupting interaction strength
